Non-standard residues stand in square brackets, D forms with d. Groups on a side chain read outwards from the residue. Primed or numbered codes have the meaning given here. No end group written: not given here. *: point of attachment. Biotin = O=C1N[C@H]2[C@H](CS[C@H]2CCCCC(=O)*)N1; PEG2′ = not defined here

For this assay, the target named is I-E^k (murine MHC class II molecule, surface-resident on BMDCs and B-cells) (mouse (endogenous in BMDCs and B-cells of B10.A mice)). Nature of the assay: flow cytometry on cells; B-cells and BMDCs pulsed with 25 and 50 uM MCC-PEG2-biotin for up to 36 h (with LPS), stained with saturating mSav-AF647 or 14.4.4 scFV-AF647 (10 ug/ml); ratio of the MFIs.

ANERADLIAYLKQATK[dS][dS][dC]([maleimide-PEG2′-Biotin]) [C-terminally biotinylated MCC peptide 88-103 derivative (MCC-PEG2-biotin)]: the proportion of surface-resident I-E^k loaded with the peptide is < 17%.
